Measurements as given in PMC13477270 (Nature structural & molecular biology, 2025).

Target: the molecule itself
Assay: SEC-MALS

B1: miniTRIM37 RING–B-box-2–hcc B-box-2 mutant (other)
chain: MDEQSVESIAEVFRCFICMEKLRDARLCPHCSKLCCFSCIRRWLTEQRAQCPHCRAPLQLRELVNCRWAEEVTQQLDTLQLCSLTKHEENEKDKCENHHEKLSVFCWTCKKCICAQCAAWGGMHGGHTFKPLAEIYEQHVTKVNEEVAKLRRRLMELITERNQVAKRVPKAPPEEKEALIARGKALGEETELLESLLQEVEHQLRSCSKSELISKSSEILMMFQQVHRK
- stoichiometry N: 2
